In patent publication EP1951759B1 (ELI LILLY AND COMPANY, dated 2010):

Molecular target: T1, soluble EGFR (sEGFR): amino acids 1-619 of mature human EGFR with (Gly)4Ser linker and (His)6 tag (human, UniProt P00533 25-643, biotinylated with Sulfo-NHS-LC-Biotin (B-sEGFR) in the filter lift and the capture ELISA)
T1 construct: range 25-643; also called B-sEGFR; biotinylated sEGFR
Test: KinExA; calculated as Kd x kon

- koff: 1.46e-06 s⁻¹
B1: full-length monoclonal antibody VH4.15 (antibody, V domains shown)
VH: QVQLQESGPGLVKPSETLSLTCTVSGFSLTNYGVHWIRQPPGKGLEWIGNIWSGGNTDYNTPFTSRVTISVDTSKNQFSLKLSSVTAADTAVYYCARALDYYDYDYAYWGQGTMVTVSS
VL: EIVLTQSPDFQSVTPKEKVTITCRASYSIGTNIHWYQQKPDQSPKLLIKYASESISGVPSRFSGSGSGTDFTLTINSLEAEDAATYYCQQNNEWPTSFGGGTKVEIK
notes: Full-length antibody with human Fc
